Laboratory results: patent US8383117

Legend:
[1] = molecular target: T1, CD44E (CD44 isoform 3, epithelial form) (human, UniProt P16070 21-742); assay: flow cytometry, MB435S cells
T1 construct: also called CD44v8-10; VB1-008 Ag
Text: (§1) Appropriate isotype-matched controls were also used in the study.

[2] = molecular target: T1, CD44E (CD44 isoform 3, epithelial form); assay: flow cytometry, MCF-7 cells; control 4B5-IgG
Text: as §1

[3] = molecular target: T1, CD44E (CD44 isoform 3, epithelial form); assay: flow cytometry, PANC-1 cells (no antigen purified from this line)
[4] = molecular target: T1, CD44E (CD44 isoform 3, epithelial form); assay: flow cytometry, A-375 cells; control 4B5-IgG
Text: as §1

[5] = molecular target: T1, CD44E (CD44 isoform 3, epithelial form); assay: flow cytometry, A-375 cells, surface-bound antibody after 120 min at 37 °C
[6] = molecular target: T1, CD44E (CD44 isoform 3, epithelial form); assay: flow cytometry, RAMOS cells
[7] = molecular target: T1, CD44E (CD44 isoform 3, epithelial form); assay: flow cytometry, DAUDI cells (called antigen-negative); control 4B5-IgG
[8] = molecular target: T1, CD44E (CD44 isoform 3, epithelial form); assay: flow cytometry, A-375 cells (very positive line)
[9] = molecular target: T1, CD44E (CD44 isoform 3, epithelial form); assay: flow cytometry, A-375 cells
[10] = molecular target: T1, CD44E (CD44 isoform 3, epithelial form); assay: flow cytometry, MB231 cells
Text: as §1

[11] = molecular target: T1, CD44E (CD44 isoform 3, epithelial form); assay: flow cytometry saturation curve on A-375 tumor cells, Lineweaver-Burk; antigen on the cells identified later in the filing as CD44E
Experimental: Values and graphical analysis were generated using Sigma Plot (Jandel Scientific, San Rafael, Calif.). The inverse of the determined median fluorescence was plotted as a function of the inverse of antibody concentration to determine KD by the Lineweaver-Burk method. A straight line was generated and the KD was calculated from the slope of the curve.

[12] = molecular target: T1, CD44E (CD44 isoform 3, epithelial form); assay: flow cytometry, RAMOS cells; control 4B5-IgG
Text: as §1

[13] = molecular target: T1, CD44E (CD44 isoform 3, epithelial form); assay: flow cytometry, DAUDI cells (called antigen-negative)
[14] = molecular target: T1, CD44E (CD44 isoform 3, epithelial form); assay: flow cytometry, MB231 cells; control 4B5-IgG
Text: as §1

[15] = molecular target: T1, CD44E (CD44 isoform 3, epithelial form); assay: flow cytometry, MDA-MB-231 cells (moderately positive line)
[16] = molecular target: T1, CD44E (CD44 isoform 3, epithelial form); assay: flow cytometry, RAMOS cells (called a negative line)
[17] = molecular target: T1, CD44E (CD44 isoform 3, epithelial form); assay: flow cytometry, PANC-1 cells; control 4B5-IgG
Text: as §1

[18] = molecular target: T1, CD44E (CD44 isoform 3, epithelial form); assay: flow cytometry, MDA-MB-435S cells (very positive line)
[19] = molecular target: T1, CD44E (CD44 isoform 3, epithelial form); assay: flow cytometry, MCF-7 cells
Text: as §1

[20] = molecular target: T1, CD44E (CD44 isoform 3, epithelial form); assay: flow cytometry, A-375 cells kept on ice for 120 min; over human IgG (4B5)
[21] = molecular target: T1, CD44E (CD44 isoform 3, epithelial form); assay: flow cytometry, A-375 cells, surface-bound antibody after 60 min at 37 °C
[22] = molecular target: T1, CD44E (CD44 isoform 3, epithelial form); assay: flow cytometry, MCF-7 cells (weakly positive line)
[23] = molecular target: T1, CD44E (CD44 isoform 3, epithelial form); assay: flow cytometry, DAUDI cells (called antigen-negative); remark: listed apart in the source
[24] = molecular target: T1, CD44E (CD44 isoform 3, epithelial form); assay: flow cytometry, PANC-1 cells (called a negative line in the immunoprecipitation)
[25] = molecular target: T1, CD44E (CD44 isoform 3, epithelial form); assay: flow cytometry, MB435S cells; control 4B5-IgG
Text: as §1

T1 sequence (P16070 other isoform, or with tags, fused parts or gaps limits assumed): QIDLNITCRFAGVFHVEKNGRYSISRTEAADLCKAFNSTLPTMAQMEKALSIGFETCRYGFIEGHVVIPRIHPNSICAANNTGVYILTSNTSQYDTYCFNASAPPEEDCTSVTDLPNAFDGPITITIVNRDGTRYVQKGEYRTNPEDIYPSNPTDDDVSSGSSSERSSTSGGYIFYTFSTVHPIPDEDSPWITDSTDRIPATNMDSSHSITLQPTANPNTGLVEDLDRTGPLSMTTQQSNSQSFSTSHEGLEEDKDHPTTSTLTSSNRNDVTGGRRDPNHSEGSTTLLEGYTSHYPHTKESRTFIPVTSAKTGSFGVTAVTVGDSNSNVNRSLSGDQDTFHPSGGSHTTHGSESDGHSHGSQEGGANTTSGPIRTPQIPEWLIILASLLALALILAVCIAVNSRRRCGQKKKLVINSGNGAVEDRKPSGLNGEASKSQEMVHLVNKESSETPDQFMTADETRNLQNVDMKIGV

B1: VB1-008 monoclonal antibody (antibody, V domains shown)
VH: QVQLQELGPRLVRPSQTLILTCTVSGGSVSGDEYYWSWLRQTPGKGLEWIGYMSYRGSSYYSPSLQSRVTIAVDRSKNEFSLKLTSVTAADAAVYFCARKYCGGDCRSGFDIWGRGTMVTVAS
VL: YELTQPPSVSVSPGQKAFITCSGDNLGNKYVCWYQQKPGQSPVLVIYEDTKRPSGIPERFSASNSGNTATLTISGTQPIDEADYYCQAWDSRTEIFGTGTKVTVLS
notes: also called 17P2/C12
Flow results [1]: 15.8 fold
fold-increase in median fluorescence over isotype-matched control [2]: 4.63 fold
Flow results [3]: 8.95 fold
fold-increase in median fluorescence over isotype-matched control [4]: 13.3 fold
Fold-increase in MF [5]: 12 fold
Flow results [6]: 1.1 fold
fold-increase in median fluorescence over isotype-matched control [7]: 1 fold
increase in median fluorescence over isotype-matched control (MF) [8]: 13.3 fold
Flow results [9]: 11.1 fold
Flow results [10]: 14.2 fold
Kd [11]: 58.8 nM
fold-increase in median fluorescence over isotype-matched control [12]: 1.1 fold
increase in median fluorescence over isotype-matched control (MF) [13]: 1.1 fold
fold-increase in median fluorescence over isotype-matched control [14]: 14.2 fold
increase in median fluorescence over isotype-matched control (MF) [15]: 14.2 fold
increase in median fluorescence over isotype-matched control (MF) [16]: 1.3 fold
fold-increase in median fluorescence over isotype-matched control [17]: 8.3 fold
increase in median fluorescence over isotype-matched control (MF) [18]: 15.8 fold
Flow results [19]: 4.63 fold
Fold-increase in MF [20]: 31.7 fold
Fold-increase in MF [21]: 13.5 fold
increase in median fluorescence over isotype-matched control (MF) [22]: 4.67 fold
Flow results [23]: 1 fold
increase in median fluorescence over isotype-matched control (MF) [24]: 8.3 fold
fold-increase in median fluorescence over isotype-matched control [25]: 15.8 fold
